Experimental findings from patent US20250320292A1 are described below.

The target in the assay is COL4A3 (immobilised as Fc-rat COL4A3 or COL4A3-His). The assay is described as follows: BLI (Octet RED96); COL4A3 immobilised (Fc-rat COL4A3 on anti-human Fc or COL4A3-His on HIS1K, not said which), test article titrated from 50 nM. For orientation: BLI is a label-free optical method that tracks binding on a fibre tip over time.

B1: CDAB14 (scFv)
chain: DCGPPPDIPNARPILGRHSKFAEQSKVAYSCNNGFKQVPDKSNIVVCLENGQWSSHETFCEKSCVAPERLSFASLKKEYLNMNFFPVGTIVEYECRPGFRKQPPLPGKATCLEDLVWSPVAQFCKKKSCPNPKDLDNGHINIPTGILFGSEINFSCNPGYRLVGVSSTFCSVTGNTVDWDDEFPVCTEIHCPEPPKINNGIMRGESDSYTYSQVVTYSCDKGFILVGNASIYCTVSKSDVGQWSSPPPRCIEKSKVPTKKPTINVPSTGTPSTPQKPTTESVPNPGDQPTPQKPSTVKVSATQHVPVTKTTVRHPIRTSTDKGEPNTGGGGGSGGGGSGGGGSGGGGSQVQLLESGPGLVKPSGTLSLTCTVSGGSISSTNWWTWVRQSPGTGLEWIGHIYHSGSTDYNPSLKSRVTISIDKSKNQFSLKMTSVTAADTAVYYCACAAQYHWKGLDPWGHGTLVTVSSGGGGGSGGGGSGGGGSDIVMTQTPLSLSVTPGQPASISCMSSQSLLHSDGKTYLYWYLQKPGQPPQLLIYEVSNRFSGVPDRFSGSGSGTDFTLKISRVEAEDVGIYYCMQSIQLPITFGQGTRLEIKHHHHHH
One may read the Kd as the equilibrium constant for the complex coming apart. Higher therefore signals weaker binding. The molecule B1 registered a Kd of 23 µM.
